Results as given in patent US20130273062A1, “ANTIBODIES AGAINST HUMAN CD39 AND USE THEREOF” (OREGA BIOTECH, priority 2010, published 2013).

T1: CD39 ATPase activity of melanoma cells (SK-MEL-5) (Homo sapiens, UniProt P49961)
T1 construct: SK-MEL-5 and SK-MEL-28 cell lines display membranous expression of CD39; endogenous in cells; host or cells: SK-MEL-5 melanoma cells
T1 sequence (P49961 1-510): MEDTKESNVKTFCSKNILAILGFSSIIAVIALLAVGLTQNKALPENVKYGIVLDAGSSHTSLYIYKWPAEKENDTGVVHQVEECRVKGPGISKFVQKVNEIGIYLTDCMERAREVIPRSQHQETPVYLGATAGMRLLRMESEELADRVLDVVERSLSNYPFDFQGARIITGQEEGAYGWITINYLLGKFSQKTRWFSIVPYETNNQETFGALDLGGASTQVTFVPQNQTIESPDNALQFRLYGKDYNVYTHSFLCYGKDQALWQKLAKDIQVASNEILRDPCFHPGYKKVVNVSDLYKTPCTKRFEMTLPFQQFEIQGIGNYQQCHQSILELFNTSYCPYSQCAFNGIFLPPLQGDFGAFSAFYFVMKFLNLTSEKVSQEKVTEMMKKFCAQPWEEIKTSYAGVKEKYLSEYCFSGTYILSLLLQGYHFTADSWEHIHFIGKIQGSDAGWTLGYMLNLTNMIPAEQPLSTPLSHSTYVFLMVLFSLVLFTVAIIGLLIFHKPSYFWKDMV

T2: CD39 ATPase activity of lymphoma cells (Ramos) (Homo sapiens, UniProt P49961)
T2 construct: BL41, B104 and Ramos express CD39 at their cell surface; endogenous in cells; host or cells: Ramos Burkitt lymphoma cells
T2 sequence (P49961 1-510): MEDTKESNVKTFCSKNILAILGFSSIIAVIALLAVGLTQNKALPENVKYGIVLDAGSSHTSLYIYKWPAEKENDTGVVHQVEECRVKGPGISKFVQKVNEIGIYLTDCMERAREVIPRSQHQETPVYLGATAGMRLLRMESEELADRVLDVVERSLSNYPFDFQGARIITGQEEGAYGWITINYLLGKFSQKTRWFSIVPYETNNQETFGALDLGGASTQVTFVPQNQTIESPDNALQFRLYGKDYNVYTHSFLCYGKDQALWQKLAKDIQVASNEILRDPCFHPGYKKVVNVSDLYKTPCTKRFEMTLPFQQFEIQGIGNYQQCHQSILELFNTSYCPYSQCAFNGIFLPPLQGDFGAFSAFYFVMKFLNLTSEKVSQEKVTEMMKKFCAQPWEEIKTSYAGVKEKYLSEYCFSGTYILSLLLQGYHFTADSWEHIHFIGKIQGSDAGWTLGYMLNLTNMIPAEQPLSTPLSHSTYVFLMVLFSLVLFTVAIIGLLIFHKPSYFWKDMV

B1: BA54g: CD39 monoclonal antibody from hybridoma CNCM I-4171; VH SEQ ID NO: 11, VL SEQ ID NO: 15 (antibody, listed as Mus musculus, V domains shown)
VH: DVQLVESGGGLVQPGGSRKLSCAASGFTFSSFGMHWVRQAPEKGLEWVAYISSGSSIIYYADTVKGRFTISRDNPKNTLFLQMTSLGSEDTAMYYCARWSTTVVATDYWGQGTTLTVS
VL: NIVMTQSPKSMSMSVGERVTLTCKASENVVTYVSWYQQKPEQSPKLLIYGASNRYTGVPDRFTGSGSATDFTLTISSVQAEDLADYHCGQGYSYPYTFGGGTKLEIKR
B2: BY40: murine CD39 antibody from hybridoma CNCM I-3889; VH SEQ ID NO: 1, VL SEQ ID NO: 5 (antibody, listed as Mus musculus)
VH: TRVKKPRETVKISCKASGYTFTHYGMNWVKQAPGKGLKWMGWINTYTGEPTYADDFKGRFAFSLEASVSTAYLQINNLKNEDTATYFCARRRYEGNYVFYYFDYWGQGTTLTVSSAKTTPPSVYPLAPGSAAQTNSMVTLGCLVKGYFPEQVTVTWNSGSLSSGVHTFPAVLQSDLYTLSSSVTVPS
light: DIQMTQSPASLSASVGETVTITCRASENIYSYFSWYQQKQGKSPQLLVYTAKTLAEGVPSRFSGSGSGTQFSLKINSLQPEDFGSYYCQHHYVTPYTFGGGTKLEIKRADAAPTVSIFPPSSEQLTSGGASVVCFLNNFYPKDINVKWKIDGSERQNGVLNSWTD

How the values were obtained:
[1] = test system: CD4 and CD8 T cells (PBMC) cultured with CD39-expressing SK-MEL-5 melanoma cells; experiment: Inhibition of melanoma cell-mediated suppression: proliferation of CFSE-labelled T cells co-cultured with irradiated SK-MEL-5; type: cell-based, human; settings: CFSE-labelled PBMC + irradiated SK-MEL-5, 5 days, BY40 5 μg/mL, POM-1 100 or 250 μM, flow cytometry; for CD4 T cell proliferation: FIG. 4A; for CD8 T cell proliferation: FIG. 4B
Protocol: (§1) FIG. 4: CD39 antibody (BY40) restores T cell responses against melanoma cells. 5×10^4 CFSE-labelled PBMC were cultured in the presence of 5×10^3 irradiated (100 Gy) SK-MEL-5 (NT). POM-1 (100 or 250 μM), BY40 or control isotype antibody D6212 (5 μg/mL) were added at the beginning of the culture and after 2 days of culture. After 5 days of culture, proliferation of CFSE-labelled CD4 (A) and CD8 (B) T cells was analysed by flow cytometry. Experiment was performed in duplicate and results are representative of 2 independent experiments.
as §1, with “5×10^4” for “FIG. 4: CD39 antibody (BY40) restores T cell responses against melanoma cells. 5×10^4”

[2] = molecular target: T1, CD39 ATPase activity of melanoma cells (SK-MEL-5); experiment: Inhibition of melanoma-CD39 enzymatic (ATPase) activity, phosphate release measured with Malachite green; type: cell-based; settings: SK-MEL-5 cells cultured with mAb for 16 h, then 100 μM ATP for 15 min; FIG. 3
Protocol: (§2) FIG. 3: CD39 (BA54g) antibody inhibits CD39 ATPase activity of melanoma cells. 1×10^5 melanoma cells (SK-MEL-5) were cultured in complete RPMI medium alone or in presence of BA54g mAb for 16 h. Cells were then washed three times in phosphate free buffer (10 mM glucose, 20 mM Hepes, 5 mM KCl, 120 mM NaCl, 2 mM CaCl2) and resuspended in the same buffer supplemented with 100 μM ATP for 15 min. Phosphate concentration in supernatants was measured after addition of Malachite green/polyvinylalcohol/ammonium mobylate solution for 20 min by a spectrophotometer at 620 nm and compared against a standard curve. Experiment was performed in triplicate.
as §2, with “Protocol:” for “FIG. 3: CD39 (BA54g) antibody inhibits CD39 ATPase activity of melanoma cells.”, “min” for “min.”

[3] = molecular target: T2, CD39 ATPase activity of lymphoma cells (Ramos); experiment: Inhibition of lymphoma-CD39 enzymatic (ATPase) activity, phosphate release measured with Malachite green; type: cell-based; settings: Ramos cells cultured with increasing doses of mAb for 16 h, then 100 μM ATP for 15 min; FIG. 7
Protocol: (§3) FIG. 7: CD39 antibodies inhibit CD39 ATPase activity of lymphoma cells. 1×10^5 lymphoma cells (Ramos) were cultured in complete RPMI medium alone or in presence of BA54g, BY12 or BY40 mAbs, at the indicated concentrations, for 16 h. Cells were then washed three times in phosphate free buffer (10 mM glucose, 20 mM Hepes, 5 mM KCl, 120 mM NaCl, 2 mM CaCl2) and resuspended in the same buffer supplemented with 100 μM ATP for 15 min. Phosphate concentration in supernatants was measured after addition of Malachite green/polyvinylalcohol /ammonium mobylate solution for 20 min by a spectrophotometer at 620 nm and compared against a standard curve. Results are the mean of two independent experiments.
as §3, with “1×10^5” for “FIG. 7: CD39 antibodies inhibit CD39 ATPase activity of lymphoma cells. 1×10^5”, “KC1,” for “KCl,”

Molecule	CD4 T cell proliferation [1]	CD8 T cell proliferation [1]	CD39 enzymatic activity of melanoma cells [2]	CD39 activity of lymphoma cells [3]
[Na+].[Na+].[Na+].[Na+].[Na+].[Na+].[O]=[W](=[O])([O-])[O-].[O]=[W](=[O])([O-])[O-].[O]=[W](=[O])([O-])[O-].[O]=[W](=[O])=[O].[O]=[W](=[O])=[O].[O]=[W](=[O])=[O].[O]=[W](=[O])=[O].[O]=[W](=[O])=[O].[O]=[W](=[O])=[O].[O]=[W](=[O])=[O].[O]=[W](=[O])=[O].[O]=[W](=[O])=[O] [POM-1, sodium metatungstate, reference compound]	increased	increased	–	–
B1	–	–	inhibits CD39 enzymatic activity in a dose dependant manner	inhibited CD39 activity in a dose dependant manner
B2	increased	increased	–	inhibited CD39 activity in a dose dependant manner
